This is an account of results in patent publication US20260201034A1 (published 2026).

This assay addresses T1, HER2 Y772dupYVMA peptide on HLA-A*02:01 (human).
T1 peptide: VMAYVMAGV
Put plainly: multimer staining.

B1: HER2 (Y772dupYVMA)/HLA-A*02:01-specific TCR (TCR, V domains shown)
Valpha: AQTVTQSQPEMSVQEAETVTLSCTYDTSESDYYLFWYKQPPSRQMILVIRQEAYKQQNATENRFSVNFQKAAKSFSLKISDSQLGDAAMYFCAYWSVPGGSYIPTFGRGTSLIVHP
Vbeta: EAQVTQNPRYLITVTGKKLTVTCSQNMNHEYMSWYRQDPGLGLRQIYYSMNVEVTDKGDVPEGYKVSRKEKRNFPLILESPSPNQTSLYFCASSLRPGTSIPGELFFGEGSRLTVL
As to B1, the binding result is “recognises”.
